Numbering of substitutions follows the chain as printed.
What was measured:
[1] = molecular target: T1, RAP d3 E251K, K270E (human, UniProt P30533 235-353); assay: solid-phase binding assay: LRP2 CR89 coated on the plate, d3 ligand in solution, anti-RAP detection, absorbance
T1 construct: range 201-319 (mature RAP numbering); Forward mutant of m1; same construct; also called RAP E251K, K270E; not shown: N-terminal hexahistidine and S-peptide tags of pET30(+)a
T1 sequence (looked up): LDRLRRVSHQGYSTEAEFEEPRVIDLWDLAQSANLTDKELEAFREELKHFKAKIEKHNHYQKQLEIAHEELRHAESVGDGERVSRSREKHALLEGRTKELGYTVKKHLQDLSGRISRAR
Protocol: (§1) Solid phase binding assays—Purified, refolded CR protein (1 μg) was bound to Nunc Maxisorp™ 96-well plates in TBS pH 8 supplemented with 5 mM CaCl₂ (TBSC) overnight at 4° C. Wells were washed with TBSC and then blocked with TBSC containing 2% bovine serum albumin (BSA). RAP ligands were then incubated with the immobilized receptor at a range of concentrations for 2 hours in the above blocking buffer supplemented with 0.05% Tween-20 at room temperature. Control wells contained no added ligand. As an additional control, to determine whether the absence of calcium affected binding, 10 mM EGTA was included in the incubation medium for some samples. Wells were washed with TBSTC and bound ligands detected with polyclonal anti-RAP (BP41/42, 1:1,000, BioMarin). Excess primary antibody was removed and wells washed before incubation with the secondary antibody, HRP-conjugated goat anti rabbit IgG (Bio-Rad). After washing, TMB substrate solutions (Bio-Rad) were added to detect HRP. Color development was stopped with 1N HCl. Absorption at 450 nm was measured with a microplate spectrophotometer (Molecular Devices). Data were plotted and Kd values derived by non-linear regression with the assumption of single-site binding (GraphPad Prism).
(§2) Next, the binding of RAP d3 and MegaRAP1 d3 proteins to LRP1 CR3-5 and LRP2 CR89 was assessed. […] In all cases, 10 mM EGTA prevented binding of both RAP d3 and MegaRAP1 d3 to CR proteins. Since calcium was the only divalent metal ion present in the binding buffer, this observation is consistent with both RAP d3 and MegaRAP1 d3 binding to calcium-loaded CR pairs. […] Therefore, wild-type RAP d3 and MegaRAP1 d3 have inverted binding preferences for these two receptor fragments.

[2] = molecular target: T2, RAP d3 E217K (human, UniProt P30533 235-353); assay: as above
T2 construct: range 201-319 (mature RAP numbering); Forward mutant of m1; same construct; also called RAP E217K; not shown: N-terminal hexahistidine and S-peptide tags of pET30(+)a
T2 sequence (looked up): T1 sequence (looked up) with E17K, K51E, E70K
Protocol: as §1, §2

[3] = molecular target: T3, RAP d3 H249Y (human, UniProt P30533 235-353); assay: as above
T3 construct: range 201-319 (mature RAP numbering); Forward mutant of m1; same construct; also called RAP H249Y; not shown: N-terminal hexahistidine and S-peptide tags of pET30(+)a
T3 sequence (looked up): T1 sequence (looked up) with H49Y, K51E, E70K
Protocol: as §1, §2

[4] = molecular target: T4, RAP d3 K256A, K270E (human, UniProt P30533 235-353); assay: as above
T4 construct: range 201-319 (mature RAP numbering); Forward mutant of m1; same construct; also called RAP K256A, K270E; not shown: N-terminal hexahistidine and S-peptide tags of pET30(+)a
T4 sequence (looked up): T1 sequence (looked up) with K51E, K56A
Protocol: as §1, §2

[5] = molecular target: T5, RAP d3 E251K (human, UniProt P30533 235-353); assay: as above
T5 construct: range 201-319 (mature RAP numbering); Forward mutant of m1; same construct; also called RAP E251K; not shown: N-terminal hexahistidine and S-peptide tags of pET30(+)a
T5 sequence (looked up): T1 sequence (looked up) with E70K
Protocol: as §1, §2

[6] = molecular target: T6, RAP d3 K270E (human, UniProt P30533 235-353); assay: as above
T6 construct: range 201-319 (mature RAP numbering); Forward mutant of m1; same construct; also called RAP K270E; not shown: N-terminal hexahistidine and S-peptide tags of pET30(+)a
T6 sequence (looked up): T1 sequence (looked up) with K51E
Protocol: as §1, §2

[7] = molecular target: T7, MegaRAP1 d3 (human, UniProt P30533 235-353); assay: solid-phase assay, coated CR protein (same value as Table 1)
T7 construct: range 201-319 (mature RAP numbering); d3 of the variant selected on LRP2 CR89; also called RAPv2A d3; RAP v2A; not shown: N-terminal hexahistidine and S-peptide tags of pET30(+)a
T7 sequence (looked up): T1 sequence (looked up) with S13T, E17K, H49Y, K56A

binding result [1]: no binding (tested: 100 nM) | binding result [2]: no binding (tested: 100 nM) | binding result [3]: no binding (tested: 100 nM) | binding result [4]: no binding (tested: 100 nM) | binding result [5]: no binding (tested: 100 nM) | binding result [6]: no binding (tested: 100 nM) | Kd [7]: 38 nM
B1: LRP2 CR89 (receptor)
chain: not shown
notes: domain: CR89; Limits of the fragment are set only by the primers LRP2CR8F and LRP2CR9R; also called YVWR; L2 CR89; not shown: N-terminal hexahistidine and S-peptide tags of pET30(+)a
